One block for each substance: values may come before it.
Key:
P00330 = experiment: mass photometry; conditions: other: mass photometry
[1] = target: subunits of the human 20S proteasome (28 subunits); experiment: cross-linking
[2] = target: Alcohol dehydrogenase from baker's yeast (baker's yeast) (UniProt P00330); experiment: cross-linking

Substance: Alcohol dehydrogenase from baker's yeast
% monomers after 5 min in guanidine HCl (dMP) (P00330): ∼34 % monomers

% covalently stabilised 20S proteasome (25:1 DSBU:20S) [1]: 16%
% covalently stabilised 20S proteasome (400:1 DSBU:20S) [1]: 25%
Substance: subunits of the human 20S proteasome (28 subunits)

Substance: Alcohol dehydrogenase from baker's yeast (from UniProt P00330 1-348) (enzyme)
% of total counts as dimers (25:1 DSBU:ADH) [2]: 25%
% of total counts as monomers (25:1 DSBU:ADH) [2]: 50%
% of total counts as tetramers (25:1 DSBU:ADH) [2]: 10%
% of total counts as tetramers (DSBU molar excess ≥ 100) [2]: 53%
% of total counts as trimers (25:1 DSBU:ADH) [2]: 14%
stoichiometry N [2]: 4
